Source: US20050265970

Legend:
[1] = molecular target: T1, GST-Gadd45β (full-length murine Gadd45β directly fused to GST), P22339
T1 chain: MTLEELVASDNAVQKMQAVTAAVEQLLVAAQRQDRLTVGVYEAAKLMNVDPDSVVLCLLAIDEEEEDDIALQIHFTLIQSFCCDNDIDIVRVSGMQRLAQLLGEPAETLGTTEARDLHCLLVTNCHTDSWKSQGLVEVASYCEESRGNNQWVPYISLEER

[2] = molecular target: Gadd45β-derived peptide 8 (pure synthetic peptide, sequence in FIG. 37C)
[3] = molecular target: T2, His6-Gadd45β (full-length human Gadd45β purified from E. coli), O75293
T2 chain: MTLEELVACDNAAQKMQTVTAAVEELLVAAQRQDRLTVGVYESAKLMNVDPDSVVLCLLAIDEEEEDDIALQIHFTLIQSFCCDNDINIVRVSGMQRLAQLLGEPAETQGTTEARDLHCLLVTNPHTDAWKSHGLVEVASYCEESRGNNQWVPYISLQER

[4] = molecular target: Gadd45β-derived peptide 2 (pure synthetic peptide, sequence in FIG. 37C)

B1: FLAG-MKK7 (FLAG-tagged JNKK2) immunoprecipitated from 293 cells (protein)
chain: MAASSLEQKLSRLEAKLKQENREARRRIDLNLDISPQRPRPTLQLPLANDGGSRSPSSESSPQHPTPPARPRHMLGLPSTLFTPRSMESIEIDQKLQEIMKQTGYLTIGGQRYQAEINDLENLGEMGSGTCGQVWKMRFRKTGHVIAVKQMRRSGNKEENKRILMDLDVVLKSHDCPYIVQCFGTFITNTDVFIAMELMGTCAEKLKKRMQGPIPERILGKMTVAIVKALYYLKEKHGVIHRDVKPSNILLDERGQIKLCDFGISGRLVDSKAKTRSAGCAAYMAPERIDPPDPTKPDYDIRADVWSLGISLVELATGQFPYKNCKTDFEVLTKVLQEEPPLLPGHMGFSGDFQSFVKDCLTKDHRKRPKYNKLLEHSFIKRYETLEVDVASWFKDVMAKTESPRTSGVLSQPHLPFFR
GST-JNK1 phosphorylation by MKK7 (kinase assay) [1]: Both Gadd45β polypeptides, but neither GST nor His6-EF3, blocked GST-JNK1 phosphorylation by MKK7, in a dose-dependent manner | JNKK2 kinase activity in vitro (phosphorylation of GST-JNK1) [1]: both GST-Gadd45β and His6-Gadd45β effectively suppressed JNKK2 activity, in vitro, even at the lowest concentrations that were tested | MKK7 kinase assay with GST-JNK1 substrate [2]: the amino acid regions contained in the overlapping, Gadd45β-derived peptides 2 and 8 are sufficient to recapitulate most of the inhibitory activity of Gadd45β on MKK7 | GST-JNK1 phosphorylation by MKK7 (kinase assay) [3]: Both Gadd45β polypeptides, but neither GST nor His6-EF3, blocked GST-JNK1 phosphorylation by MKK7, in a dose-dependent manner | JNKK2 kinase activity in vitro (phosphorylation of GST-JNK1) [3]: both GST-Gadd45β and His6-Gadd45β effectively suppressed JNKK2 activity, in vitro, even at the lowest concentrations that were tested | MKK7 kinase assay with GST-JNK1 substrate [4]: the amino acid regions contained in the overlapping, Gadd45β-derived peptides 2 and 8 are sufficient to recapitulate most of the inhibitory activity of Gadd45β on MKK7
